From paper PMC8042219, “Expression of Novel L-Leucine Dehydrogenase and High-Level Production of L-Tert-Leucine Catalyzed by Engineered Escherichia coli” (Frontiers in Bioengineering and Biotechnology, 2021) come the findings set out here.

For series [1], the target named is T1, CsLeuDH (Caldanaerobacter subterraneus, UniProt U5CQF4).
T1 construct: gene O163_07585
T1 sequence (U5CQF4 1-355): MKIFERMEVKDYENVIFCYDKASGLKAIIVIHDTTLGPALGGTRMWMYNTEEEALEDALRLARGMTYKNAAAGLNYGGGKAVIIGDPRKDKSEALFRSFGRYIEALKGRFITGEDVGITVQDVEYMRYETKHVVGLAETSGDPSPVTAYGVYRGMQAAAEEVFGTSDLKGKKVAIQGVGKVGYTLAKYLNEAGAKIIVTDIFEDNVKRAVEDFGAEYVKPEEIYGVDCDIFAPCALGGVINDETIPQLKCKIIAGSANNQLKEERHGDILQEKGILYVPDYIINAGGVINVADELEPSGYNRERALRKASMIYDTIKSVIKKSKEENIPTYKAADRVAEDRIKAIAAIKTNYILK
The series can be described thus: NADH absorbance at […] nm, specific activity. In kind it is biochemical. The conditions noted are these: reductive amination, 2 mM TMP, 0.1 mM NADH, 500 mM NH4Cl-NH3 buffer pH 9.5, 30 °C.

Series [2] has as its target T2, BbLeuDH (Bdellovibrio bacteriovorus, UniProt A0A1Z3N8C0).
T2 construct: gene B9G79_08965
T2 sequence (A0A1Z3N8C0 1-376): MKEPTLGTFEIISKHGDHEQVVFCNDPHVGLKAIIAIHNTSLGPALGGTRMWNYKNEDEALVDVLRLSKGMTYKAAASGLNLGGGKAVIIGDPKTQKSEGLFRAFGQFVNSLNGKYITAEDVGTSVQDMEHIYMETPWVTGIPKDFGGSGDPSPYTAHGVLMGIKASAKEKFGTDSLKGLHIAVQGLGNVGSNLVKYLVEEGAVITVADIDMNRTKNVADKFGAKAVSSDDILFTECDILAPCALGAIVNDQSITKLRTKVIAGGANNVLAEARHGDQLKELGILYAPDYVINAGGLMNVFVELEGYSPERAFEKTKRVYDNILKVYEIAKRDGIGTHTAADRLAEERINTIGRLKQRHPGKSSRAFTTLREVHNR
The series can be described thus: NADH absorbance at […] nm, specific activity. In kind it is biochemical. The conditions noted are these: reductive amination, 2 mM TMP, 0.1 mM NADH, 500 mM NH4Cl-NH3 buffer pH 9.5, 30 °C.

In series [3] the target is T3, TbLeuDH (Staphylospora marina, UniProt Z9JLC0NN60).
T3 sequence (Z9JLC0NN60 1-365): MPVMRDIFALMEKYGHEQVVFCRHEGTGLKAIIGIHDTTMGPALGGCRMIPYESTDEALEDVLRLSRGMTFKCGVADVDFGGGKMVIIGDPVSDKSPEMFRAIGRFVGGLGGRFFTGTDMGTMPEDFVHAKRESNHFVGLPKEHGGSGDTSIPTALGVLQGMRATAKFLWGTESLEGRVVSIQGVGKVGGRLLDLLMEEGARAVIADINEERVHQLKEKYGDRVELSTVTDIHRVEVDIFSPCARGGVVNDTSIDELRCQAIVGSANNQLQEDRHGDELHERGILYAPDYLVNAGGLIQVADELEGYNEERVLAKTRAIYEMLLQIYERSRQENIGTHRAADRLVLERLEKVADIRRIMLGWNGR
The series can be described thus: NADH absorbance at […] nm, specific activity. In kind it is biochemical. The conditions noted are these: reductive amination, 2 mM TMP, 0.1 mM NADH, 500 mM NH4Cl-NH3 buffer pH 9.5, 30 °C.

Substrate in series [4]: CC(C)C[C@H](N)C(=O)O
The series can be described thus: purified protein. The conditions noted are these: oxidative deamination, L-leucine varied 0.1-3 mM, 1 mM NAD+. The class given is biochemical, Planifilum fimeticola.

Substrate in series [5]: NC(=O)C1=CN([C@@H]2O[C@H](COP(=O)(O)OP(=O)(O)OC[C@H]3O[C@@H](n4cnc5c(N)ncnc54)[C@H](O)[C@@H]3O)[C@@H](O)[C@H]2O)C=CC1
As to the kind of experiment: purified protein. In kind it is biochemical, Planifilum fimeticola. The conditions noted are these: reductive amination, NADH varied 0.05-0.35 mM, 40 mM TMP; standard assay 500 mM NH4Cl-NH3 buffer pH 9.5, 30 °C; pH 9.5; 30.0 °C; varied: cofactor.

Substrate in series [6]: CC(C)(C)C(=O)C(=O)O
As to the kind of experiment: purified protein. The class given is biochemical, Planifilum fimeticola. The conditions noted are these: reductive amination, TMP varied 1-20 mM, 0.3 mM NADH; standard assay 500 mM NH4Cl-NH3 buffer pH 9.5, 30 °C; pH 9.5; 30.0 °C.

Substrate in series [7]: NC(=O)c1ccc[n+]([C@@H]2O[C@H](COP(=O)(O)OP(=O)(O)OC[C@H]3O[C@@H](n4cnc5c(N)ncnc54)[C@H](O)[C@@H]3O)[C@@H](O)[C@H]2O)c1
As to the kind of experiment: purified protein. In kind it is biochemical, Planifilum fimeticola. The conditions noted are these: oxidative deamination, NAD+ varied 0.1-4 mM, 4 mM L-leucine; varied: cofactor.

As to `CC(C)(C)C(=O)C(=O)O` [Trimethylpyruvate], the “NADH absorbance at 340 nm, specific activity” value in series [1], in series [2] and in series [3] was “All four soluble leucine dehydrogenases have catalytic activity for TMP” in each case.

B1: PfLeuDH (Planifilum fimeticola) (protein)
chain: MKWFDYMERYDYEQLIFCQDKNSGLKAIIAIHDTTLGPALGGVRMWKYDSEEEAIVDALRLARGMTYKAAAAGLNLGGGKTVIIGDPRKDKNEEMFRALGRFIQGLNGRYITAEDVGTTEEDMDIIHQETRFVTGVSPAFGSSGNPSPVTAYGVYRGMKAAAKIAFGSDSLEGKTVAVQGVGSVAYHLCKHLHEEGARLIVTDIVRENVERAVRDFGAESVAPDKIYDVECDIFSPCALGAIINDETLPRLKCRVVAGSANNQLKEERHGDRLEELGIIYVPDYVINAGGLINVADELFGYNRERAMKKVETIYDNVLRVFEIAKRDGIPSYKAADRMAEERIESLTRSRSTFLRNERNVLNMV
For B1, in series [4], the Km was found to be 100 µM, the Vmax came out at 3.49 µmol/min/mg, the kcat amounted to 2.33 s⁻¹ and the kcat/Km was 23300 M⁻¹ s⁻¹. For the same molecule, in series [5], the Km was 60 µM, the Vmax was determined as 9.09 µmol/min/mg, the kcat worked out at 6.06 s⁻¹ and the kcat/Km was 101000 M⁻¹ s⁻¹. Besides, in series [6], the Km was found to be 3080 µM, the Vmax was found to be 58.6 µmol/min/mg, the kcat stood at 39.1 s⁻¹ and the kcat/Km turned out to be 12700 M⁻¹ s⁻¹. In series [7], the Km is 110 µM, the maximum rate (Vmax) was found to be 2.72 µmol/min/mg, the kcat came to 1.81 s⁻¹ and the kcat/Km was found to be 16400 M⁻¹ s⁻¹.

As a reminder, the Km is the substrate concentration at which the rate is half of its maximum. Broadly, the Vmax is the top rate of the reaction or transport when substrate is in excess. In general, kcat refers to the number of substrate molecules converted per active site and unit of time at saturation. What is called kcat/Km is the turnover number divided by the Michaelis constant.
